Experimental data taken from patent publication US6362319B1, “Glial cell line-derived neurotrophic factor” (Amgen Inc., priority 1991, dated 2002).

System: dopaminergic neurons in rat embryo (E16) mesencephalic cell cultures
Assay: Bioassay for dopaminergic neurotrophic activity: 3H-dopamine uptake in dissociated mesencephalic cell cultures
Format: cell-based
Settings: for FOLD (specific activity relative to B49 conditioned medium): purification fold over CM
Procedure: The dopaminergic activity of the GDNF is used to facilitate the purification process. […] Briefly, cultures of dissociated mesencephalic cells are prepared, either in serum rich or serum free environments. Samples to be tested for dopaminergic activity are desalted and serially added to the cell cultures and the dishes are incubated for 6 days at 37° C. in a humidified atmosphere containing 6.5% CO2. The cultures, in the presence of the testing material, are then incubated at 37° C. with tritiated dopamine (^3H-DA). The dopamine uptake is halted, the cells washed, and the dopamine uptake analyzed by scintillation counting of retained tritium in the cultures.
Culture conditions: Dissociated mesencephalic cell cultures were prepared as previously described (Friedman and Mytilineou 1987 Neurosci. Lett. 79:65-72), with minor modifications. Briefly, rostral mesencephalic tegmentum from brains of Sprague-Dawley rat embryos, at the 16th day of gestation, were dissected under the microscope in sterile conditions, collected in Ca^2+- and Mg^2+-free Dulbecco's phosphate buffered saline (Gibco, Gaithersburg, Md.) and dissociated mechanically by mild trituration. The cells were plated in 100 μl per well onto 16-mm diameter tissue culture wells (Falcon, Lincoln Park, N.J., 24-well plate) containing 400 μl medium to give a density of 2.5-3.5×10^5 cells per well. The culture wells had been previously exposed to 0.1 mg/ml solution of poly L-ornithine in 10 mM sodium borate, pH 8.4, for 3 hours at 37° C., washed 3 times in milli-Q H2O and once in Earle's balanced salt solution (Gibco). The feeding medium (10/10) consisted of minimal essential medium (MEM, Gibco) supplemented with glucose (33 mM), sodium bicarbonate (24.5 mM), glutamine (2 mM), HEPES (15 mM), penicillin G (5 U/ml), streptomycin (5 μg/ml), 10% heat-inactivated fetal calf serum (Gibco) and 10% heat inactivated horse serum (Gibco). The cultures were kept at 37° C. in a water-saturated atmosphere containing 6.5% CO2. After 3 hours, when most of the cells had adhered to the bottom of the well, the medium was replaced with 500 μl of fresh medium. At this time, a serial dilution of the sample to be assayed for GDNF activity was added to each well in duplicate and the plates were incubated in the 37° C. incubator. After a week, the cultures were treated for 24 hours with fluorodeoxyuridine (13 μg/ml) and uridine (33 μg/ml) to prevent excessive glial proliferation and subsequently fed with the above medium without fetal calf serum. The feeding medium was changed weekly.
Alternatively, chemically defined serum-free medium was used in which serum was replaced by a mixture of proteins; hormones and salts. The defined medium (DM) consisted of a mixture of MEM and F12 nutrient mixture (both Gibco, 1:1; vol/vol) with glucose (33 mM), glutamine (2 mM) NaHCO3 (24.5 mM), HEPES (15 mM), supplemented with transferrin (100 μg/ml), insulin (25 μg/ml), putrescine (60 μM), progesterone (20 nM), sodium selenite (30 nM), penicillin G (5 U/ml) and streptomycin (5 μg/ml). The osmolarity of the DM was adjusted to 325 by the addition of milli-Q H2O. (110-125 ml H2O/l). […] All assays reached in the following examples were done in serum-containing medium.
The functional status of the dopaminergic neurons may be assayed in these cultures by measuring dopamine uptake through specific “scavenger” transporters in the dopaminergic neurons and by counting the number of neurons positive for the dopamine synthetic enzyme tyrosine hydroxylase using immunohistochemistry.

B1: glial cell line-derived neurotrophic factor (protein)
chain: SNMPEDYPDQFDDVMDFIQATIKRLKRSPDKQMAVLPRRERNRQAAAANPENSRGKGRRGQRGKNRGCVLTAIHLNVTDLGLGYETKEELIFRYCSGSCDAAETTYDKILKNLSRNRRLVTDKVGQACCRPIAF
notes: dopaminergic neurotrophic protein purified from serum-free conditioned medium of rat B49 glioblastoma cells; disulfide-bonded dimer
bioactivity in dopamine uptake assay: active in stimulating dopamine uptake in both serum-containing and defined media | SP. ACT (specific activity, dopamine uptake trophic units per protein) (TU = reciprocal of dilution giving 50% of maximal stimulation of 3H-DA uptake): at least 12,000 TU/μg | concentration for half-maximal stimulation of dopamine uptake (indicated by the specific activity): approximately 60 pg/ml | FOLD (specific activity relative to B49 conditioned medium): about 24,000 | FOLD (specific activity relative to B49 conditioned medium) (listed as substantially purified GDNF): at least 24,000 | estimated specific activity (purified GDNF after final RP-HPLC): about 17 trophic units/ng | ED50 for increasing dopamine uptake (rat embryo (E16) mesencephalic culture): about 50 pg/ml
